Test results: PMC8484605, “A complex of BRCA2 and PP2A-B56 is required for DNA repair by homologous recombination” (Nature Communications, 2021)
Blank lines part the entries; values can stand above or below the molecule they belong to. Square brackets hold non-standard residues; d marks the D form. Ends that are not written are not given here. pT = C[C@@H](OP(=O)(O)O)[C@H](N)C(=O)O; pS = N[C@@H](COP(=O)(O)O)C(=O)O

Legend:
B56α [1] = target: T1, B56α (Homo sapiens, UniProt Q15172); experiment: isothermal titration calorimetry; settings: reference: unphosphorylated peptide
U2OS Flp-In T-REx cells [2] = experiment: Colony formation assay: Olaparib sensitivity; assay type: cell-based, human
Protocol: (§1) For transient protein expression, cells were transfected with Lipofectamine 2000 (Invitrogen) and the plasmid of interest and incubated for 48 h unless otherwise stated. For BRCA2 knockdown, cells were transfected twice with 10 nM Silencer Select BRCA2 s2084 siRNA and 10 nM Silencer Select BRCA2 s2085 siRNA (Ambion) using Lipofectamine RNAiMAX (Invitrogen) 24 and 48 h before the experiment. A luciferase oligo ([NT], Sigma) was used for control (Ctrl). U2OS Flp-In T-REx parental cells or stably expressing siRNA-resistant venus-MBP-BRCA2 constructs were transfected with Ctrl or BRCA2 siRNA as described above. […] Reseeding was performed by trypsinizing the cells, dissolving into growth medium, and counting the number of cells using the Scepter Cell Counter (Merck), followed by seeding a known number of cells into six-well plates containing growth medium. After 11 days, the cells were fixed and stained in 0.5% methylviolet, 25% methanol. The plates were scanned on a GelCount (Oxford Optronix), and the number of colonies were quantified using the GelCount software (version 1.3.04). The plating efficiency (%) for each well was calculated as the number of colonies divided by the number of cells seeded times 100. The surviving fraction for each dose of drug was calculated by normalizing the plating efficiency to that of the unperturbed condition. The plating efficiency data of Figs. 2, 3, and Supplementary Fig. 3 is derived from the unperturbed condition of the MMC sensitivity dataset, and the plating efficiency data of Fig. 4 is derived from the unperturbed condition of the Olaparib sensitivity dataset. Graphs were constructed in PRISM, and one-way ANOVA analyses with Dunnett's multiple comparison tests were performed comparing the mean of each condition to the siBRCA2 + WT condition. Exact p values are provided in the source data.

U2OS Flp-In T-REx cells [3] = experiment: Colony formation assay: MMC sensitivity; assay type: cell-based, human
Protocol: For transient protein expression, cells were transfected with Lipofectamine 2000 (Invitrogen) and the plasmid of interest and incubated for 48 h unless otherwise stated. For BRCA2 knockdown, cells were transfected twice with 10 nM Silencer Select BRCA2 s2084 siRNA and 10 nM Silencer Select BRCA2 s2085 siRNA (Ambion) using Lipofectamine RNAiMAX (Invitrogen) 24 and 48 h before the experiment. A luciferase oligo (5′-[sequence]dTdT-3′, Sigma) was used for control (Ctrl).
U2OS Flp-In T-REx parental cells or stably expressing siRNA-resistant venus-MBP-BRCA2 constructs were transfected with Ctrl or BRCA2 siRNA as described above. Then, cells were either treated with 0, 3, or 10 ng/mL Mitomycin C for 24 h followed by reseeding into normal growth medium or reseeded directly and either treated for 24 h with 0, 5, or 15 nM CPT or continuously maintained in medium containing 0, 5.6, 16.7, or 50 nM Olaparib. […] The plates were scanned on a GelCount (Oxford Optronix), and the number of colonies were quantified using the GelCount software (version 1.3.04). The plating efficiency (%) for each well was calculated as the number of colonies divided by the number of cells seeded times 100. The surviving fraction for each dose of drug was calculated by normalizing the plating efficiency to that of the unperturbed condition. […]

U2OS Flp-In T-REx cells [4] = experiment: Colony formation assay: CPT sensitivity; assay type: cell-based, human
Protocol: as §1, with “The plating efficiency data of Figs. 2, 3, and Supplementary Fig. 3 is derived from the unperturbed condition of the MMC sensitivity dataset, and the plating efficiency data of Fig. 4 is derived from the unperturbed condition of the Olaparib sensitivity dataset. Graphs were constructed in PRISM, and one-way ANOVA analyses with Dunnett's multiple comparison tests were performed comparing the mean of each condition to the siBRCA2 + WT condition. Exact p values are provided in the source data.” left out

[5] = test system: BRCA2 pT1104/pS1106 and pT1128; experiment: Western blot of BRCA2 phosphorylation in BRCA2 immunoprecipitates; assay type: cell-based, human; settings: U2OS Flp-In T-REx, S-phase, released 1 h, 2 μM CPT for 1 h
Protocol: For immunoprecipitations of endogenous BRCA2, U2OS Flp-In T-REx cells were synchronized to S-phase as described above, released for 1 h, and treated for 1 h with 2 μM CPT in presence or absence of 25 μM KU55933 (ATM kinase inhibitor) and 5 μM AZ20 (ATR kinase inhibitor). Cells were lysed in RIPA buffer, and proteins were immunoprecipitated on BRCA2 antibody-conjugated (Millipore Cat# OP95, RRID:AB_2067762) Rec-protein G Sepharose 4B beads (Invitrogen) for 1 h at 4 °C and washed in RIPA buffer prior to elution.
All buffers were supplemented with 1 mM DTT, Complete protease inhibitor cocktail (Roche), and PhosSTOP phosphatase inhibitor cocktail (Roche). For λ phosphatase treatment experiments, immunoprecipitants on beads were washed in buffer without phosphatase inhibitor and incubated with λ phosphatase (Sigma–Aldrich) in the applied buffer for 20 min at 30 °C before elution. Immunoprecipitants were eluted in 2× NuPage LDS sample buffer (Invitrogen). Whole-cell extracts and immunoprecipitations were analyzed by SDS-PAGE and western blotting or mass spectrometry analysis. For western blotting, samples were boiled for 5 min in NuPage LDS sample buffer and run on NuPage Bis-Tris 4–12% protein gels (Invitrogen), and proteins were transferred to PVDF membranes (Immobilon-FL, Merck). […] Quantification of western blots were carried out in ImageStudioLite (version 5.2.5., LI-COR). […]

B56α [6] = target: T1, B56α; experiment: Isothermal titration calorimetry (ITC) of BRCA2 peptides binding to B56α; set-up: His; made in house; host or cells: E. coli BL21 Rosetta2 (DE3) R3 T1; settings: ITC at 25 °C; 50 mM sodium phosphate pH 7.5, 150 mM NaCl, 0.5 mM TCEP; peptide titrated into B56α; single-site model; error = standard error of the fitting; performed once
Protocol: Both recombinant B56α and synthetic BRCA2 peptides were extensively dialyzed prior to ITC experiments against the ITC buffer (50 mM sodium phosphate pH 7.5, 150 mM NaCl, 0.5 mM TCEP). All experiments were performed on a MicroCal Auto-iTC200 (Malvern Panalytical) instrument at 25 °C (Auto-iTC200 version 1.1.1.0, iTC200 version 1.26.4, Origin version 7.0552 SR4). Both peptide and B56α concentrations were determined using a spectrophotometer by measuring the absorbance at 280 nm and applying values for the extinction coefficients as computed from the corresponding sequences by the ProtParam program (http://web.expasy.org/protparam/). The BRCA2 peptides were loaded into the syringe and titrated into the calorimetric cell containing B56α. The reference cell was filled with distilled water. Control experiments with the peptides injected in the sample cell filled with buffer were carried out under the same experimental conditions. […] The titration sequence consisted of a single 0.4 μl injection followed by 19 injections, 2 μl each, with 150 s spacing between injections to ensure that the thermal power returns to the baseline before the next injection. The stirring speed was 750 rpm. […] Data were analysed with MicroCal PEAQ-ITC analysis software (version 1.1.0.1262., Malvern Panalytical).

His-tagged B56α = target: T2, His-tagged B56α (UniProt Q15172 1-486); experiment: ITC; BRCA2 peptide in the syringe titrated into B56α in the cell; 25 °C; 50 mM sodium phosphate pH 7.5, 150 mM NaCl, 0.5 mM TCEP; single-site model; settings: both partners purified
T2 construct: source: E. coli BL21 Rosetta2 (DE3) R3 T1, purified (Ni column, Superdex 200)

[7] = BRCA2 depletion (siBRCA2) vs siCtrl
[8] = cells expressing BRCA2 3AQ compared to BRCA2 WT

T2 sequence (Q15172 whole entry): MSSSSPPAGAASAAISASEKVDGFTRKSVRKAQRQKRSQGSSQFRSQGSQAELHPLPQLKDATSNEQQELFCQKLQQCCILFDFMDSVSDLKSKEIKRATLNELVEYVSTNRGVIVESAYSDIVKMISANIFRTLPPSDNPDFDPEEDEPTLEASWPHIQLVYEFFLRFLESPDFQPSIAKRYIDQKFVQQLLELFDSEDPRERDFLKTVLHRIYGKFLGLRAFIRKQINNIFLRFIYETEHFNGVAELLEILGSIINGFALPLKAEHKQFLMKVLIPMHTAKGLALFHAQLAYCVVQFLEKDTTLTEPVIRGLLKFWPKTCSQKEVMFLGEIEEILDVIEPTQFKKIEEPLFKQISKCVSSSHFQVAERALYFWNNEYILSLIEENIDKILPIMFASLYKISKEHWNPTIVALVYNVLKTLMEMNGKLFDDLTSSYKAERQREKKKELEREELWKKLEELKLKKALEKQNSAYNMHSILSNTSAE
T1 sequence (Q15172 whole entry): as above

Molecule: O=C(c1cc(Cc2n[nH]c(=O)c3ccccc23)ccc1F)N1CCN(C(=O)C2CC2)CC1 [Olaparib]
Olaparib sensitivity (U2OS Flp-In T-REx cells [2]; [7]): hypersensitivity
Olaparib sensitivity (U2OS Flp-In T-REx cells [2]; [8]): hypersensitivity
Olaparib sensitivity (U2OS Flp-In T-REx cells [2]; cells expressing BRCA2 S1106R, T1116P or T1128I compared to BRCA2 WT): mild sensitivity

Molecule: CO[C@@]12[C@H](COC(N)=O)C3=C(C(=O)C(C)=C(N)C3=O)N1C[C@@H]1N[C@@H]12 [MMC, Mitomycin C]
MMC sensitivity (U2OS Flp-In T-REx cells [3]; [7]): hypersensitivity
MMC sensitivity (U2OS Flp-In T-REx cells [3]; cells expressing BRCA2 3AQ or 3DQ compared to BRCA2 WT): hypersensitivity

Molecule: CC[C@@]1(O)C(=O)OCc2c1cc1n(c2=O)Cc2cc3ccccc3nc2-1 [Camptothecin, camptothecin]
CPT sensitivity (U2OS Flp-In T-REx cells [4]; [7]): hypersensitivity
CPT sensitivity (U2OS Flp-In T-REx cells [4]; [8]): hypersensitivity
phosphorylation of BRCA2 T1104/S1106 and T1128 [5]: stimulated

B1: BRCA2 1105-1129 3DQ peptide (peptide)
peptide: PDQKAEITELSTILEESGDQFEFDQW
notes: human BRCA2, residues 1105-1129 with the three SQ/TQ sites changed to DQ (phosphomimetic); tryptophan at the C-terminus, outside the stated BRCA2 limits; source: synthetic peptide (Peptide 2.0 Inc.)
Kd (His-tagged B56α): 3.75 µM
stoichiometry N (His-tagged B56α): 0.86

B6: BRCA2 1105-1129 peptide (peptide)
peptide: PSQKAEITELSTILEESGSQFEFTQW
notes: human BRCA2, residues 1105-1129; tryptophan at the C-terminus, outside the stated BRCA2 limits; also called BRCA2^1105-1129 WT; source: synthetic peptide (Peptide 2.0 Inc.)
Kd (His-tagged B56α): 7.76 µM
stoichiometry N (His-tagged B56α): 0.99

B7: BRCA2 1105-1129 S1106R peptide (peptide)
peptide: PRQKAEITELSTILEESGSQFEFTQW
notes: human BRCA2, residues 1105-1129 with the missense variant S1106R reported in individuals (ClinVar); tryptophan at the C-terminus, outside the stated BRCA2 limits; also called c.3318 C > G; source: synthetic peptide (Peptide 2.0 Inc.)
Kd (His-tagged B56α): 2.93 µM
stoichiometry N (His-tagged B56α): 0.95

B8: BRCA2 1105-1129 T1116P peptide (peptide)
peptide: PSQKAEITELSPILEESGSQFEFTQW
notes: human BRCA2, residues 1105-1129 with the missense variant T1116P reported in individuals (ClinVar); tryptophan at the C-terminus, outside the stated BRCA2 limits; also called c.3346 A > C; source: synthetic peptide (Peptide 2.0 Inc.)
Kd (His-tagged B56α): 6.92 µM
stoichiometry N (His-tagged B56α): 0.85

B9: BRCA2 1105-1129 T1128I peptide (peptide)
peptide: PSQKAEITELSTILEESGSQFEFIQW
notes: human BRCA2, residues 1105-1129 with the missense variant T1128I reported in individuals (ClinVar); tryptophan at the C-terminus, outside the stated BRCA2 limits; also called c.3383 C > T; source: synthetic peptide (Peptide 2.0 Inc.)
Kd (His-tagged B56α): 7.43 µM
stoichiometry N (His-tagged B56α): 1.01

B10: BRCA2 1108-1126 peptide (peptide)
peptide: WKAEITELSTILEESGSQFE
notes: tryptophan at the N-terminus, outside the stated BRCA2 limits; human BRCA2, residues 1108-1126 with the LxxIxE motif; The added W probably serves the A280 concentration measurement; also called BRCA2^1108-1126 WT; source: synthetic peptide (Peptide 2.0 Inc.)
Kd (His-tagged B56α): 5.17 µM
stoichiometry N (His-tagged B56α): 1.02

Second part, the molecule after the results:

fold change (B56α [1]; sites S1123,T1128): stronger
Molecule: BRCA2 (from UniProt P51587) doubly phosphorylated pS1123/pT1128 peptide

fold change (B56α [1]; sites S1123): stronger
Molecule: BRCA2 (from UniProt P51587) pS1123 peptide

KD (B56α [6]): No binding
Molecule: WKAEITEASTALEESGSQFE [BRCA2^1108-1126 2A, synthetic BRCA2 peptide 1108-1126 with L1114A-I1117A]

fold change (B56α [1]; sites T1128): stronger
Molecule: BRCA2 (from UniProt P51587) pT1128 peptide (printed once as S1128)

binding against the reference (B56α [1]; sites S1106): weaker
Molecule: BRCA2 (from UniProt P51587) pS1106 peptide

Kd (His-tagged B56α): 1.38 µM
stoichiometry N (His-tagged B56α): 0.94
B2: BRCA2 1113-1129 pT1128 peptide (peptide)
peptide: WELSTILEESGSQFEF[pT]Q
notes: tryptophan at the N-terminus, outside the stated BRCA2 limits; human BRCA2, residues 1113-1129, T1128 phosphorylated; source: synthetic peptide (Peptide 2.0 Inc.)

Kd (His-tagged B56α): 0.48 µM
stoichiometry N (His-tagged B56α): 0.91
B3: BRCA2 1113-1129 pS1123, pT1128 peptide (peptide)
peptide: WELSTILEESG[pS]QFEF[pT]Q
notes: tryptophan at the N-terminus, outside the stated BRCA2 limits; human BRCA2, residues 1113-1129, S1123 and T1128 phosphorylated; also called double phosphorylated peptide; source: synthetic peptide (Peptide 2.0 Inc.)

Kd (His-tagged B56α): 3.82 µM
stoichiometry N (His-tagged B56α): 1.01
B4: BRCA2 1113-1129 peptide (peptide)
peptide: WELSTILEESGSQFEFTQ
notes: tryptophan at the N-terminus, outside the stated BRCA2 limits; human BRCA2, residues 1113-1129; source: synthetic peptide (Peptide 2.0 Inc.)

Kd (His-tagged B56α): 0.77 µM
stoichiometry N (His-tagged B56α): 0.92
B5: BRCA2 1113-1129 pS1123 peptide (peptide)
peptide: WELSTILEESG[pS]QFEFTQ
notes: tryptophan at the N-terminus, outside the stated BRCA2 limits; human BRCA2, residues 1113-1129, S1123 phosphorylated; source: synthetic peptide (Peptide 2.0 Inc.)
